The source of these data is patent publication US20250066477A1.

For this assay, the target named is human γδ TCR (Vγ9Vδ2) on human γδ T cells (human). The experiment in a line: cell-based or functional assay.
Chain of human γδ TCR (Vγ9Vδ2) on human γδ T cells (human) (main, as listed by the source): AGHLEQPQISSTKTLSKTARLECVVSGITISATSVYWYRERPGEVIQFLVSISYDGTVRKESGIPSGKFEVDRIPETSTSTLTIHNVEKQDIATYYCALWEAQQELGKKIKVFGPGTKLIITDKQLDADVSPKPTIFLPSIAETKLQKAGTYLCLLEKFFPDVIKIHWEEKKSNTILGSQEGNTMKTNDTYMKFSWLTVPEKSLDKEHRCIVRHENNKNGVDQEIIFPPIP

B1: 1D7v158×5T4 bispecific γδTCR×5T4 molecule (bispecific antibody, part only; not given: anti-5T4 VHH, Fc halves, not shown: a dimerising Fc or GST)
chain, part: EVQLLESGGGEVQPGGSLRLSCVASRGKISQYRMGWYRQAPGKQRELVAHISNTGDAAEYVAPVKGRFTISRDNAKNALYLQMNSLRAEDTAVYKCNTVEDILAWGQGTLVTVEP
As for B1, the potency (EC50) of γδ T cell-mediated caspase-3/7 activation / cytotoxicity on A375 cells, against the molecule comprising 1D7v9 was 2 fold.
